B1: CesC, ATPase of the ABC transporter CesCD (BACTH fusion) (natural protein)
chain: MIKIEGLTKEFGNGKGIFDVTFEVKQGEVFGFLGPNGAGKSTTIRHLMGFIKPSKGAATINGFDCWKEADQVKKRVGYLPGEIAFPEEMTAYDFIRLIAGMKGMSDLGRAEEFIEKFQLDMRVHIKKMSKGMKQKLAIVAAFLHDPDILILDEPSTGLDPLMQNILVDFILEEKKCGKTILISSHIFDEIKDTADTICIIKNGKIVESGDLKTLKSAQKRYLKAYFTQEVDVELLQRSNLQIEKVENLVATILIQQNINEIMRELMKYDLINVEIMEPEIKDIFIKHYENR
notes: also called T18-CesC; CesC-T18; source: bacterial two-hybrid (BACTH) fusion, E. coli BTH101; not shown: T18 or T25 fragment of B. pertussis adenylate cyclase (several combinations tested), N-terminal or C-terminal, kept

Key:
[1] = molecular target: C-terminal condensation domain C* of CesA (BACTH fusion) (Bacillus cereus F4810/72) (UniProt Q20CI9); assay: two-hybrid; BACTH in E. coli BTH101, β-galactosidase activity (Miller assay, ONPG, 28°C) of cells from LB-IPTG plates, normalized to the negative control (T18 and T25 alone)
[2] = molecular target: T1, CesD, transmembrane protein of the ABC transporter CesCD (BACTH fusion) (Bacillus cereus F4810/72, UniProt Q20CI6 1-268); assay: as above; details: partners not purified
T1 construct: CesD, transmembrane protein of the ABC transporter CesCD, B. cereus F4810/72, NCBI ABK00530.1; also called T25-CesD; source: bacterial two-hybrid (BACTH) fusion, E. coli BTH101; not shown: T18 or T25 fragment of B. pertussis adenylate cyclase (several combinations tested), N-terminal or C-terminal, kept
T1 sequence: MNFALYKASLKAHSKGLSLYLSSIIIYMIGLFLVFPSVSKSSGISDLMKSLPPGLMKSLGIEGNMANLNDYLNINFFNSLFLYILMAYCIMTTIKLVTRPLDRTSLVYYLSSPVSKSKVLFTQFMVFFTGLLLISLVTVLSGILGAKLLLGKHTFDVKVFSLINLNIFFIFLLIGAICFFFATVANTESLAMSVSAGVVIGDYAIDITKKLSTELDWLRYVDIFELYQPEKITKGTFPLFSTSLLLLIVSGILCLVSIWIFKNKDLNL

Molecule	decrease in β-galactosidase activity against wild-type CesC [1] [%]	β-galactosidase activity, fold of the negative control [2] [fold]
CesC K40M (BACTH fusion) (from UniProt Q20CI7 1-291) (natural protein)	30	
B1		~20

From publication PMC7527721, “Beyond Toxin Transport: Novel Role of ABC Transporter for Enzymatic Machinery of Cereulide NRPS Assembly Line” (mBio, 2020)
